Biological target: SpPks1 (sea urchin polyketide synthase, Strongylocentrotus purpuratus) (Strongylocentrotus purpuratus)
Assay: SEC

stoichiometry N: 2
Substance: SpPks1 (sea urchin polyketide synthase, Strongylocentrotus purpuratus) (enzyme)

Source: article PMC9526445
